Assay: yeast display, Sf9 membrane polyspecificity reagent, FACS + sequencing; frameworks hold sequencing errors
Outline: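 A nanobody's polyreactivity label depends on the gate it was sorted from. Yeast display cells were stained with 10% biotinylated, detergent-solubilized Sf9 membrane reagent for 1 hour at 4 °C, enriched on streptavidin microbeads and sorted by FACS. The low and high (top ~1%) gates were set on anti-HA fluorescence for expression and streptavidin fluorescence for reagent binding.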

Row | Sequence | polyreactivity (PSR sort gate)
1 | QVQLVESGGGLVQAGGSLRLSCAASGRIFATNAMGLYRQAPGKERELVATITRSAGRTYYADSVKGRFTISRDNAKNTVYLQMNSLKPEDTAVYYCAASYWDTEPGYREYDYWGQGTQVTVSS | low polyreactivity
2 | QVQLVESGGGLVQAGGSLRLSCAASGFTFVDYAMGWYRQAPGKERELVATINWDSGSTYADSVKGRFTISRDNAKNTVYLQMNSLKPEDSADYYCAADGDEIEVSFYSWGQGTQVTVSS | low polyreactivity
3 | QVQLVESGGGLVQAGGSLRLSCAASGFTFGLYAMGWYRQAPGKERELVAAISSDGSTYYTDSVKGRFTISRDNAKNTVYLQMNSLKPEDTSVYYCNRDYPQSLPYYTNTILYGYWGQGTQVTVSS | low polyreactivity
4 | QVQLVESGGGLVQAGGSLRLSCAASGRIFIYYAMGRYRQAPGKERELVAGIDYSGGSTYYADSVKGRFTISRDNAKNTVYLQMNSLKPEDTAVYFCAAGKYRHYYGRSFYRFDYWGKGTQVTVSS | high polyreactivity
5 | QVQLVESGGGLVQAGGSLRLSCAASGSTYGIYAMGWYRQAPGKERELVAAISSGGSTNYADSVKGRFTISRDNAKNTVYLQMNSLKPEDTAVYYCAVESVYEYGGYVDSAYDYWGQGTQVTVSS | low polyreactivity
6 | QVQLVESGGGLVQAGGSLRLSCAASGFIFFTYAMGWYRQAPGKERELVAAISSRGGSTYYADSVQGRFTISRDNAKKTVYLQMNSLKPEDTAVYYCAAQAYGGYPYGYWGQGTQVTVSS | high polyreactivity
7 | QVQLVESGGGLVQAGGSLRLSCAASGSTLYRYAMGWYRQAPGKERELVAAITRGSGSTYYADSVKGRFTISRDNAKNTVYLQMNSLKPEDTAVYYCATVKRNHLDGFEYWGQGTQVTVSS | high polyreactivity
8 | QVQLVESGGGLVQAGGSLRLSCAASGFIFNLYAMGWYRQAPGKERELVAVISGSGVRTYYADSVKGRFTISRDNAKNTVYLQMNSLKPEDTAVYYCAARTYGGYEYWGQGTQVTVSS | high polyreactivity
9 | QVQLVESGGGLVQAGGSLRLSCAASGSTFWGYAMAWYRQAPGKERELVATINQSAGSTYYADSVKGRFTISRDNAKNTVYLQMNSLKPEDTAVYYCAAEARVQFSYDYWGQGTQVTVSS | low polyreactivity
10 | QVQLVESGGGLVQAGGSLRLSCAPSGRIFGVYAMGWYRQAPGKERELVATIRSSGTRTNYADSVKGRFTISRDNAKNTVYLQMNSLKPEDTAVYYCAAGGRPYKLDFTRSDYWGQGTQVTVSS | low polyreactivity
11 | QVQLVESGGGLVQAGGSLRLSCAASGSIFSDYVMGWSRQAPGKERELVATISRGGGSTFYADSVKGRFTISRDTAKNTVYLQMNSLKPEDTAVYYCAAPPGPSGAKYDYWGQGTQVTVSS | low polyreactivity
12 | QVQLVESGVGLVQAGGSLRLSCAASGIIFLENAMGWYRQAPGKERELVAGISSGGNTNYADSVKGRFTISRDNAKNTDYLQMNSLKPEDTAVYYCNTDWYLPRYVLLGYFSGTEDSWGQGTQVTVSS | low polyreactivity
13 | QVQLVESGGGLVQAAGSLRLSCAASGLTFYYYAMGWYRQAPGKERELVAGISGSDGSTYYADSVNGRFTISRDNAKNSVYLQMNSLTPEDTAVYYCAAEYYYAWPLYYITDGIYDMYYWGQGTQVTVSS | low polyreactivity
14 | QVQLVESGGGLVQAGGSLRLSCAASGSTFDRNVMGWYRQAPGKERELVAAISRVSSTNYADSVKGRFTISRDNAKNTVYLQMISLKPEDTAVYYCAVDNISNWAVENDYWGQGTQVTVSS | low polyreactivity
15 | QVQLVESGGGLVQAGGSLRLSCAASGSIFQGYAMGWYRQAPGKERELVAVITSRVGRTYYADSVKGRFTISRDNAKNTVYLQMNSLKPEDTAVYYCAAKLYGGWYRDFAASGMDYWGQGTQVTVSS | high polyreactivity
16 | QVQLVESGGGLVQAGGSLRLSCAASGGIFVYYAMGWYRQAPGKERELVAAISSGGTTNYADSVKGRFTISRDNAKNTVYLQMNSLKPEDTAVYYCAIYVSWPLYYYWGQGTQVTVSS | low polyreactivity
17 | PVQLQESGGGLVQAGGSLRLSCAASGNIFDADIMGWYRQAPGKESELVACIADGGSTNYAESVKGRFTISRDNAKNTVYLQMNRLKPEDTAVYYCAAIAYPDIPTCFDYDSDYFFRGQGTQVTVSS | low polyreactivity
18 | QVQLVESGGRLVQAGGSLSISCAASGSTFTSYSMGWYRQAPGKERELVAAIRRIGGDTYYADSVKGRFTISRDNAKNTVYLQMNSLKPEDTAVNYCAAVRWRSEPYWYHAMEHWGQGTQVTVSS | low polyreactivity
19 | QVQLVESGGGLVQAGGSLRLSCAASGSIFDWNAMGWYRQAPGKERELVAAISGTGGTKYADSVKGRFTISRDNAKNTVYLQMISLKPEDTAVYYCAVGLVPLRDGWHFYYEFDSWGQGTQVTVSS | low polyreactivity
20 | QVQLVESGGGLVQAGGSLRLSCAASGIIFEYYAMGWYRQAPGKERELVASITSSDGSTYYADSVKGRFTISRDNAKNTVYLQMNSLKPEDTAVYYCAAAGDYVVPISSTAGFGGDYWGQGTQVTVSS | low polyreactivity
21 | QVQLVESGGGLVQAGGSLRLSCAASGRIFYGNAMGWYRQAPGKVRELVAAISSGTSTNYADSVKGRFTISRDNAKNPVYLQMNSLKPEDTAVYYCAAGSYSRYLYSLYFDFDYWGQGTQVTVSS | low polyreactivity
22 | QVQLVESAGGIVQAGGSLRLSFAASGSTFTRYAMGWYRPAPGKERELVAAIDGGGGSTSYADSVKGRFTISRDHAKNTVYLQMNSLKPEDTAVYYCAAPLDTSSRIFDYWGHGTQVTVSS | low polyreactivity

Row | Sequence | polyreactivity (PSR sort gate)
23 | QVQREESGGGLVQAGGSLRLSCAASGNIFYQYAMGWYRLAPGKEREFVAAISISGTSTYADSVKGRFTISRDNAKNTVYLQMNSLKPVDTAVYWGQGTQVTVSS | low polyreactivity
24 | QVQLVESGGGLVQAGGSLRLSCAASGFILDYNTMGWYRQAPGKERELVAAISSSGDTTYYADSVKGRFTISRDNAKNTVYLQMNSLKPEDTAVYYCGREYGDGYEYWGQGTQVTVSS | low polyreactivity
25 | QVQLVESGGGLVQAGGSLRLSSAASGSTFTPYVMGWYRQAPGKERELVAAISKRGGSTYYADSVKGRFTISRDNANNTVYLQMNSLKPEDTAVYYCAAVQPAWGNGYWGQGTQVTVSS | high polyreactivity
26 | QVQLVESGGRLVQAGGSLRLSCAASGYIFKTNVMGWYRQAPGKEREMVAAISWSGGRTYYADSVKGRFTISRDYGKNCVYLQMNSLKPEDTSVYYFAAVGRQSIYFVDYDFWGQGTQVTVSS | high polyreactivity
27 | QVQLVESGGGLVQAGGSLRLSCAASGNIFSDNAMGWYRQAPGKERELVATITSSGVSTYYADSVKGRFTISRDNAKNTVYLQMNSLKPEDTAVYYGAVQGFRYHSREYDYWGQGTQVTVSS | low polyreactivity
28 | QVQIVESGGGLVQAGGSLRLSCAASGRISKFYTMGWYRQAPGKERELVADISYSGGSTYYADSVKGRFTISRDIEKNTVYLQMNSLKPEDTAVYFCSVDGLQRAIDYWGQGTQVTVSS | high polyreactivity
29 | QVQLVESGGGLVQAGGSLRLSCAASGRIFYSNAMGWYRQAPGKERELVAVIRRTGSTYYADSVKGRFTISRDNAKNTVYLQMNSLKPEDTAVYYCATRIPYGRGGNRYDYWGQGTQVTVSS | low polyreactivity
30 | QVQLVESGGGLVQAGGSLRLSCAASGRIFRQYAMGWYRQAPGKERELVAAITSGGSTNYADSVKGRFTISRDNAKNTVYLQMNSLKPEDTAVYYCNARWPYAYQDGYWGQGTQVTVSS | low polyreactivity
31 | QVQLVESGGGLVQAGGSLRLSCAASGRIFYRNVMGWNRQAPGKERELVAAITYRTGSTYYADSVKGRFTISRDNAKNTVYLQMNSLKPEDTAVYYCNVVPRNGQTWGYEYDYWGQGTQVTVSS | high polyreactivity
32 | QVQLVESGGGLVQAGGSLRLSWAASGITFYGNAMGWYRAAPGKEREFVAAISTRDGTTYADSVKGRFTISRDNAKNTVYLQRNSLKPEDTAVYYCAAAYYYDGQQGDFAYWGQGTQVTVSS | low polyreactivity
33 | QVQLVESGGGLVQAGGSLRLSCAASGRIFRLYAMGWYRQSPGKERELVATITSGGTYYADSVKGRFTISRDNAKNTVYLQMNSLKPEDTAVYYCTARRRLRYDYWGQGTQVTVSS | low polyreactivity
34 | QVQLVESGGGLVQAGGSLRLSCAPSGRTLIHYAMGWSRQAPGKEREFVATINIGGRTYADSVKGRFTISRDNAKTTVYLQMNSLKPEDSAVYYCDADHRYSARRSFPTLYDYWAQGTQVTVSS | low polyreactivity
35 | QVQLVESGGGLVQAGGSLRLSCAASGSIFDDYAMGWYRQATGKERQLVAAISSSGTSTYYADSVKGRFTISRDNAKNTVYLQMNSLKPEDTAVYYCAARSAILKSGYLMDYWGQGTQVTVSS | low polyreactivity
36 | QVQLVDSGGGLVQAGGSLRLTCAASGSIFDRYAMGWYRQAPGKERELVAAITGRGTSTYYADSVKGRFTISRDNAKNTVYLQMNSLKPEETAVYYCATPFWSRPAQDEYDYWGQGTQVTVSS | high polyreactivity
37 | QVQLVESGGGLVQAGGSLRLSCAASGSTFAYYMGWYRQAPGKERELVASISTYYADSVKGRFTISRDNAKNTVYLQMNSLKPEDTAVYYCNKAYYYVFTNYSTALAGDWGQGTQVTVSS | low polyreactivity
38 | QVQLVESGGGLVQAGGSLRLSCAASGSTFPYVMGWYRQAPGKERELVAAISQSTGGITNYADSVKGRFTISRDNAKNTVYLQMNSLKPEDTAVYYCAATSWRYQQSTRYKGRRYYSWGQGSQVTVSS | high polyreactivity
39 | QDQLVESGGGLVQAGVSLLLICAASGSTSSVYAMGWYRQAPGKERELVAAIRWSTGSTYYADSVKGLFTISRDNAKNTVYLHMNCLKPEETALYYCAAEVYTSVHIYSWYYYWGQGTKVTVSS | high polyreactivity
40 | QVQLVESRGGLVQAGGSLRLSCAASGYIFSYNAMGCYRQAPGKERELVAATSSRGGSTYYADSVKGRFTISRDNAKNPDYLQMNSLKPEDTAVYFCAVSSRRVDTEPYDYWGQGTQVTVSS | high polyreactivity
41 | QVQLVESVGGLVQAGGSLRLSCAASGSTFGHYAMGWYRQAPGKERELVSAISTSGGRTYYADSVKGRFTISRDNAKNTVYLQMNSLKPEDTAVYYCATRRYGVDKFDYWGQGTQVTVSS | high polyreactivity
42 | QVQLVESGGCLVQAGGSLRLSCAASGSIFYSYAMGWYRQAPGKEMELVADISSDGSTNYADSVKGRFTISRDNAKNTVYLQMNSLKPEDTAVYYCAKKPSSARYVTIGFDYWGQGTQVTVSS | low polyreactivity
43 | QVQLVESGGGLVQAGGSLRLSCAASGFIFYYYTMGWYRQAPGKERELVAAISSSGGRTYYADSVKGRFTISRDNAKNTVYLQMNSLKPEDTAVYYCAALYRWNQFPYFKGGYWGQGTQVTVSS | high polyreactivity
